# Data published in patent publication US20120171195A1.
# Key:
# [1] = target: HLA-B*1511 (human) (UniProt P01889); test: Luminex beads; MAb 1/800; PBS only
# [2] = target: HLA-B*1513 (human); test: Luminex beads; MAb 1/800; PBS only
# [3] = target: HLA-B*3701 (human); test: Luminex beads; MAb 1/800; PBS only
# [4] = target: HLA-B*4101 (human) (UniProt P01889); test: Luminex beads; MAb 1/800; PBS only
# [5] = target: HLA-B*4403 (human); test: Luminex beads; MAb 1/800; PBS only
# [6] = target: HLA-B*5101 (human); test: Luminex beads; MAb 1/800; PBS only
# [7] = target: HLA-B*5201 (human); test: Luminex beads; MAb 1/800; PBS only
# [8] = target: HLA-B*5801 (human); test: Luminex beads; MAb 1/800; PBS only
# [9] = target: HLA-B*8201 (human) (UniProt P01889); test: Luminex beads; MAb 1/800; PBS only
# [10] = target: HLA-Cw*0303 (human); test: Luminex beads; MAb 1/800; PBS only
# [11] = target: HLA-Cw*0304 (human); test: Luminex beads; MAb 1/800; PBS only
# [12] = target: HLA-Cw*0602 (human) (UniProt P10321); test: Luminex beads; MAb 1/800; PBS only
# [13] = target: HLA-Cw*1601 (human) (UniProt P10321); test: Luminex beads; MAb 1/800; PBS only
# [14] = target: HLA-Cw*1701 (human); test: Luminex beads; MAb 1/800; PBS only
# [15] = target: HLA-Cw*1802 (human) (UniProt P10321); test: Luminex beads; MAb 1/800; PBS only
# [16] = target: HLA-B*4402 (human); test: Luminex beads; MAb 1/200; competitor rHLA-E
# [17] = target: HLA-B*4403 (human); test: Luminex beads; MAb 1/200; competitor rHLA-E
# [18] = target: HLA-B*4701 (human); test: Luminex beads; MAb 1/200; competitor rHLA-E
# [19] = target: HLA-B*5201 (human); test: Luminex beads; MAb 1/200; competitor rHLA-E
# [20] = target: HLA-Cw*0302 (human) (UniProt P10321); test: Luminex beads; MAb 1/200; competitor rHLA-E
# [21] = target: HLA-Cw*0501 (human); test: Luminex beads; MAb 1/200; competitor rHLA-E
# [22] = target: HLA-Cw*0702 (human) (UniProt P10321); test: Luminex beads; MAb 1/200; competitor rHLA-E
# [23] = target: HLA-Cw*1502 (human); test: Luminex beads; MAb 1/200; competitor rHLA-E
# [24] = target: HLA-B*1401 (human) (UniProt P01889); test: Luminex beads; MAb 1/100; competitor IgG-free serum
# [25] = target: HLA-B*1511 (human) (UniProt P01889); test: as above
# [26] = target: HLA-B*1801 (human); test: as above
# [27] = target: HLA-B*4006 (human) (UniProt P01889); test: as above
# [28] = target: HLA-B*4101 (human) (UniProt P01889); test: as above
# [29] = target: HLA-B*4403 (human); test: as above
# [30] = target: HLA-B*5801 (human); test: as above
# [31] = target: HLA-Cw*0202 (human); test: as above
# [32] = target: HLA-Cw*0302 (human) (UniProt P10321); test: as above
# [33] = target: HLA-Cw*0501 (human); test: as above
# [34] = target: HLA-Cw*0602 (human) (UniProt P10321); test: as above
# [35] = target: HLA-Cw*0702 (human) (UniProt P10321); test: as above
# [36] = target: HLA-Cw*0801 (human) (UniProt P10321); test: as above
# [37] = target: HLA-Cw*1402 (human) (UniProt P10321); test: as above
# [38] = target: HLA-Cw*1701 (human); test: as above
# [39] = target: HLA-B*1401 (human) (UniProt P01889); test: Luminex beads; MAb 1/200; competitor IgG-free serum
# [40] = target: HLA-B*4006 (human) (UniProt P01889); test: as above
# [41] = target: HLA-B*5201 (human); test: as above
# [42] = target: HLA-B*5801 (human); test: as above
# [43] = target: HLA-Cw*0304 (human); test: as above
# [44] = target: HLA-Cw*0501 (human); test: as above
# [45] = target: HLA-Cw*0602 (human) (UniProt P10321); test: as above
# [46] = target: HLA-Cw*1701 (human); test: as above
# [47] = target: HLA-Cw*1802 (human) (UniProt P10321); test: as above
substance,measurement,setting,value
murine monoclonal antibody (MAb) MEM-E/02,MFI,[1],796 MFI
same,MFI,[2],760 MFI
same,MFI,[3],993 MFI
same,MFI,[4],960 MFI
same,MFI,[5],983 MFI
same,MFI,[6],515 MFI
same,MFI,[7],786 MFI
same,MFI,[8],835 MFI
same,MFI,[9],614 MFI
same,MFI,[10],805 MFI
same,MFI,[11],783 MFI
same,MFI,[12],839 MFI
same,MFI,[13],752 MFI
same,MFI,[14],847 MFI
same,MFI,[15],4090 MFI
same,MFI,[16],66 MFI
same,MFI,[17],75 MFI
same,MFI,[18],67 MFI
same,MFI,[19],87 MFI
same,MFI,[20],137 MFI
same,MFI,[21],147 MFI
same,MFI,[22],137 MFI
same,MFI,[23],86 MFI
same,MFI,[24],7080 MFI
same,MFI,[25],3320 MFI
same,MFI,[26],3510 MFI
same,MFI,[27],9090 MFI
same,MFI,[28],3390 MFI
same,MFI,[29],3900 MFI
same,MFI,[30],4570 MFI
same,MFI,[31],4110 MFI
same,MFI,[32],2200 MFI
same,MFI,[33],7530 MFI
same,MFI,[34],4180 MFI
same,MFI,[35],3090 MFI
same,MFI,[36],6070 MFI
same,MFI,[37],3290 MFI
same,MFI,[38],2820 MFI
same,MFI,[39],5370 MFI
same,MFI,[40],7410 MFI
same,MFI,[41],2020 MFI
same,MFI,[42],3420 MFI
same,MFI,[43],2030 MFI
same,MFI,[44],6260 MFI
same,MFI,[45],2190 MFI
same,MFI,[46],1930 MFI
same,MFI,[47],8810 MFI
